1 molecule from patent US8604172B2, “Humanized antibody compositions and methods for binding lysophosphatidic acid” (Lpath, Inc., priority 2009, dated 2013) can be followed below.

A short description of test [1]: Competition ELISA specificity, competitor S1P. Format: binding. Particulars: maximum inhibition, n = 3. Here is the method:
The specificity of the anti-LPA mAbs was assessed for their binding to LPA related biolipids such as distearoyl-phosphatidic acid, lysophosphatidylcholine, S1P, ceramide and ceramide-1-phosphate.
Background: ELISA stands for enzyme-linked immunosorbent assay.

For the next test, the system named is SKOV3 cell migration. The experiment in a line: SKOV3 migration assay. Format: cell-based, human. The following applies: Lpathomab 150 μg/mL; 1 μM 18:1 LPA; n = 3.
The subject of test [2] is IL-6 release in SKOV3 cells. As to the kind of experiment: LPA-induced IL-6 release in SKOV3 cells. Type of test: cell-based, human. Particulars: Lpathomab 600 μg/mL; 1 μM 18:1 LPA; n = 3. Here is the method: Anti-LPA antibodies inhibit the LPA-dependant release of human CXCL8/IL-8 in conditioned media of SKOV3 ovarian cells. SKOV3 cells (Lot No 4255558, passage 14) were harvested with 2 ml of 1× Trypsin EDTA (Mediatech Inc, Cat. No 25-053-CV) and resuspended in 8 ml of complete medium (10% FBS, Mediatech Inc. Cat. no 35-011-CV). The cells were centrifuged for 5 min ([…]) and re-suspended in 5 ml of complete medium. Cells were counted in duplicate with 0.4% Trypan blue (10 ul cells plus 90 ul Trypan blue, Invitrogen, Cat. No 15250-061) using a hemocytometer. In a 96-well plate, 1×10^5 cells per well were seeded (final volume 100 ul/well). The cells were allowed to attach and form a confluent monolayer by incubating overnight at 37° C. On the following day, cells were gently washed two times with minimum media (1 mg/ml BSA in McCoy's medium with L-glutamine, Mediatech, Cat. No 10-050-CV). […] The CXCL8/IL-8 levels in each supernatant were measured using the Quantikine human CXCL8/IL-8 ELISA kit according to vendor instructions (R&D Systems, Minneapolis Minn., Cat. No D8000C). The IL-6 levels were measured by ELISA using the Quantikine human IL-6 immunoassay kit (R&D systems, Cat. No. D6050). Data were analyzed by one-way ANOVA followed by Bonferroni's post test and expressed as human IL-8 or human IL-6 fold increase.

The nature of test [3]: Surface plasmon resonance, 12:0 LPA on GLC sensor chip. Type of test: binding. How it is done: (§1) All binding data were collected on a ProteOn optical biosensor (BioRad, Hercules Calif.). 12:0 LPA-thiol and 18:0 LPA-thiol were coupled to a maleimide modified GLC sensor chip (Cat. No 176-5011). First, the GLC chip was activated with an equal mixture of sulfo-NHS/EDC for seven minutes followed by a 7 minute blocking step with ethyldiamine. Next sulfo-MBS (Pierce Co., cat #22312) was passed over the surfaces at a concentration of 0.5 mM in HBS running buffer (10 mM HEPES, 150 mM NaCl, 0.005% tween-20, pH 7.4). LPA-thiol was diluted into the HBS running buffer to a concentration of 10, 1 and 0.1 uM and injected for 7 minutes producing 3 different density LPA surfaces (˜100, ˜300 and ˜1400 RU). Next, binding data for the humanized antibodies was collected using a 3-fold dilution series starting with 25 nM as the highest concentration (original stocks were each diluted 1 to 100). Surfaces were regenerated with a 10 second pulse of 100 mM HCl. All data were collected at 25° C. Controls were processed using a reference surface as well as blank injections. […] In order to extract estimates of the binding constants, data from the varying antibody concentrations were globally fit using 1-site and 2-site models. This produced estimates of the affinity for the bivalent (site 1) and monovalent site (site 2).
A general note: Surface plasmon resonance follows binding to a sensor surface in real time, without labels.

The nature of test [4]: Surface plasmon resonance, 18:0 LPA on GLC sensor chip. Type of test: binding. Here is the method:
as §1

For another test, the system named is SKOV3 tumor. As to the kind of experiment: SKOV3 ovarian tumor progression in nude mice. Format: in vivo. Particulars: with lowering of serum and ascites IL-8, IL-6, GM-CSF. Here is the method:
Human mAb LT3015 reduced ovarian tumor SKOV3 progression and circulating cytokines in biological fluids. Nude mice were engrafted with either 10 mg/kg LT3015, vehicle, or 2 mg/kg paclitaxel (Taxol). After 56 days, mice were sacrificed and the peritoneal cavities were analyzed for tumor burden and ascites fluid accumulation. Tumors were harvested and final tumor weights were determined along with ascites volumes. Data were analyzed by ANOVA and student's t-test analysis. […] Serum and ascites levels of IL-6, IL-8, GM-CSF and VEGF were measured using ELISA kits from R&D systems, Minneapolis Minn.

In test [5] the test system is selected human cancer cell lines. The experiment in a line: LPA-induced cancer cell proliferation. The following applies: addition of anti-LPA mAb. Type of test: cell-based. Here is the method: LPA is a potent growth factor supporting cell survival and proliferation by stimulation of Gi, Gq and G12/13 via GPCR-receptors and activation of downstream signaling events. Cell lines were tested for their proliferative response to LPA ([…]). Cell proliferation was assayed by using the cell proliferation assay kit from Chemicon (Temecula Calif.) (Panc-1) and the Cell-Blue titer from Pierce (Caki-1). Each data point is the mean of three independent experiments. […] Even though tumor-derived cells normally have high basal levels of proliferation, LPA appears to further augment proliferation in most tumor cell lines. Anti-LPA mAbs (B7 and B58) were assessed for the ability to inhibit LPA-induced proliferation in selected human cancer cell lines.

The test system of test [6] is human colon cancer cell line (COLO-205). As to the kind of experiment: Xenograft CAM assay. Type of test: in vivo.

Marks after values point to notes of the source that are not given here.

B1: LT3000: Murine anti-LPA monoclonal antibody clone B7, IgG1k, renamed Lpathomab, also known as LT3000; hybridoma 504B7.1, ATCC PTA-8420 (antibody, V domains shown)
VH: QVQLQQSGAELVRPGTSVKVSCKASGYGFINYLIEWIKQRPGQGLEWIGLINPGSDYTNYNENFKGKATLTADKSSSTAYMHLSSLTSEDSAVYFCARRFGYYGSGNYFDYWGQGTTLTVSS
VL: DVVMTQTPLSLPVSLGDQASISCTSGQSLVHINGNTYLHWYLQKPGQSPKLLIYKVSNLFSGVPDRFSGSGSGTDFTLKISRVEAEDLGVYFCSQSTHFPFTFGTGTKLEIK
B1: the “MI (%), S1P” value in test [1] is reported as 2.7%. The “Migration, % Inhibition (over LPA taken as 100)” value in the test on SKOV3 cell migration is given as 35* %. Besides, the “IL-6 Release, % Inhibition (over LPA taken as 100)” value in test [2] was 23* %. Besides, the Kd came out at 27 pM in test [3] (first value (site 1, bivalent), read-out: KD (C12)); 7 pM in test [3] (value in parentheses (site 2, monovalent), read-out: KD (C12), value in parentheses); 11 pM in test [4] (first value (site 1, bivalent), read-out: KD (C18)); 5 pM in test [4] (value in parentheses (site 2, monovalent), read-out: KD (C18), value in parentheses). Further, the SKOV3 tumor progression result in the test with SKOV3 tumor is recorded as “significantly reduced”. Besides, the “LPA-induced increase in proliferation” value in test [5] was “mitigated”. Besides, the tumor size entry in test [6] was “significantly reduced”.
